The results in this text go back to article PMC12216130, “Structural basis for the interaction between the bacterial cell division proteins FtsZ and ZapA” (Nature Communications, 2025).

The series deals with the molecule itself. Kind of series: cryo-EM structure; 7.4 uM KpFtsZ, 14.9 uM KpZapA (2x molar excess), 0.6 mM GMPCPP, 17 mM HEPES pH 7.5, 8.6 mM NaCl, 60 mM KCl, 3 mM MgCl2, on ice 15 min; helical refinement to 2.73 A; same data re-analysed with the focus on ZapA (3.89 and 4.27 A maps, 2D classes).

B1: K. pneumoniae ZapA (natural protein)
chain: MSAQPVDLQIFGRSLRVNCPPEQRDALNQAAEDLNQRLQDLKERTRVTNTEQLVFIAALNISYELTQEKAKTRDYASSMEQRIRMLQQTIEQALLEQGRISE
notes: ZapA of Klebsiella pneumoniae; synthetic gene codon-optimised for E. coli in pColdI-TEV; Tetramer in the structures; also called KpZapA; source: E. coli, purified (HisTrap, TEV cleavage, second HisTrap, Superdex200 SEC); not shown: His6, N-terminal, cleaved
In the case of B1, the “stoichiometry N” value was found to be 4.

B2: K. pneumoniae FtsZ (natural protein, UniProt W9BCK7 1-383, looked up)
chain: MFEPMELTNDAVIKVIGVGGGGGNAVEHMVRERIEGVEFFAVNTDAQALRKTAVGQTIQIGSGITKGLGAGANPEVGRNAADEDREALRAALDGADMVFIAAGMGGGTGTGAAPVVAEVAKDLGILTVAVVTKPFNFEGKKRMAFAEQGITELSKHVDSLITIPNDKLLKVLGRGISLLDAFGAANDVLKGAVQGIAELITRPGLMNVDFADVRTVMSEMGYAMMGSGVASGEDRAEEAAEMAISSPLLEDIDLSGARGVLVNITAGFDLRLDEFETVGNTIRAFASDNATVVIGTSLDPDMNDELRVTVVATGIGMDKRPEITLVTNKQVQQPVMDRYQQHGMSPLTQEQKPAAKVVNDNTPQTAKEPDYLDIPAFLRKQAD
notes: polymerised into protofilaments with GMPCPP, GTP or GMPPNP in the assays; also called KpFtsZ; wild-type FtsZ
Take B2: the binding result was “binds”.
